Assays:
[1] = molecular target: LF1p (aa 1-330), GAL4 two-hybrid fusion (C. reinhardtii) (UniProt Q7XJJ6); experiment: two-hybrid
[2] = molecular target: LF2p, full-length coding region, GAL4 two-hybrid fusion (C. reinhardtii) (UniProt A0MM70); experiment: two-hybrid

“LF3p, full-length coding region, GAL4 two-hybrid fusion (natural protein)” was tested, and the β-galactosidase (Miller units) [1] was 61.1 Miller units and the β-galactosidase (Miller units) [2] was 15.8 Miller units.

Source: PMC2064056
